Reference: paper PMC6779467

Target: Hsf1-13xMyc (S. cerevisiae) (UniProt P10961)
Test: cross-linking; in vivo site-specific photo-crosslinking (UV-A, 1 hr on ice) from pBPa at position 423 of Ssa1-HA; cells grown at 30 C or heat shocked 3 min at 43 C; western with anti-HA and anti-Myc

Ssa1_(E423BPa)-HA (from UniProt P10591 1-642) (natural protein)
decrease of Hsf1-Ssa1 crosslinking after heat shock (3 min at 43 C) against cells at 30 C: 77%
